Results published in publication PMC2965233.
Residue numbers refer to the chain shown, from its start.

T1: ADF-1 (D. funebris) (Drosophila funebris, UniProt E2DD98 1-262)
T1 sequence: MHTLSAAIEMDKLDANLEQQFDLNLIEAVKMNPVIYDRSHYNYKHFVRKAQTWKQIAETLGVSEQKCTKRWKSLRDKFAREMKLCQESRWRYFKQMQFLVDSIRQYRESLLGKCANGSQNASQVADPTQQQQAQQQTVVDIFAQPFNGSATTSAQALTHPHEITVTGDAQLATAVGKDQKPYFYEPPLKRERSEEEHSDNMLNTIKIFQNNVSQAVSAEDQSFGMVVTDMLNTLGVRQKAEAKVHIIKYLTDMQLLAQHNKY

T2: ADF-1 (D. melanogaster) (Drosophila melanogaster, UniProt P05552 1-262)
T2 sequence: T1 sequence with S5T, M31L, S63P, N120S, S122N, T128S, G167S

B1: Oligo 1 (dsDNA)
DNA 1: ATCGACGTCGGCGTCGACATCGTGA
DNA 2: TCACGATGTCGACGCCGACGTCGAT
B2: Oligo 4 (dsDNA)
DNA 1: TCGCTGTCTCAGTCGACGCTATTGAT
DNA 2: ATCAATAGCGTCGACTGAGACAGCGA
B3: Oligo 2 (dsDNA)
DNA 1: ATCGACGTCAACGGCAGCGTTCACAT
DNA 2: ATGTGAACGCTGCCGTTGACGTCGAT
B4: Oligo 3 (dsDNA)
DNA 1: TCAATGTCGCCGTCGCTGTCTCAGTCG
DNA 2: CGACTGAGACAGCGACGGCGACATTGA

biological target: T1, ADF-1 (D. funebris); experiment: EMSA

Binder | Kd [µM]
B1 | 1.95
B2 | 1.86
B3 | 5.05
B4 | 28.3

biological target: T2, ADF-1 (D. melanogaster); experiment: EMSA

Binder | Kd [µM]
B1 | 1.98
B2 | 1.63
B3 | 4.07
B4 | 27.5
